# From patent US20210324050A1 (VANDERBILT UNIVERSITY, published 2021)
# T1: GII.4 Houston 2002 (ABY27560.1) VLPs (human norovirus GII.4 Houston 2002, UniProt P54635 1-539)
# T1 construct: also called GII.4 Houston 2002 antigen; GII.4 Houston VLPs
# T1 chain: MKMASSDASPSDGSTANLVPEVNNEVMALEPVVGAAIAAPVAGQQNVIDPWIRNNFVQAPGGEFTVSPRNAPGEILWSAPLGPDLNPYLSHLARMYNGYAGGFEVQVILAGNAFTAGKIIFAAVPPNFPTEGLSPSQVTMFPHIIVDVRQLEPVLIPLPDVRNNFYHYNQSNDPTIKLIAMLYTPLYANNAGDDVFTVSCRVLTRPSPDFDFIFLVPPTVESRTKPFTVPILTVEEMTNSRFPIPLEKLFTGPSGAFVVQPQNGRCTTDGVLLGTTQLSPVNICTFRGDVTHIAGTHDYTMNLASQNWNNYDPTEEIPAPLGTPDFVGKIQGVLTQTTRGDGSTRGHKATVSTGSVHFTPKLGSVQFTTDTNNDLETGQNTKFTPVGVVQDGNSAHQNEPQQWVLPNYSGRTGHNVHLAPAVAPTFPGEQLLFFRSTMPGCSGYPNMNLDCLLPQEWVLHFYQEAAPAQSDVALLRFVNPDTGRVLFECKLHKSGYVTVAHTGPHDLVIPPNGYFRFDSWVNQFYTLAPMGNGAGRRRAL
# T2: GI.1 (M87661) VLPs (norovirus GI.1, UniProt Q83884 1-530; Q83885 1-212)
# T2 sequence (VP1): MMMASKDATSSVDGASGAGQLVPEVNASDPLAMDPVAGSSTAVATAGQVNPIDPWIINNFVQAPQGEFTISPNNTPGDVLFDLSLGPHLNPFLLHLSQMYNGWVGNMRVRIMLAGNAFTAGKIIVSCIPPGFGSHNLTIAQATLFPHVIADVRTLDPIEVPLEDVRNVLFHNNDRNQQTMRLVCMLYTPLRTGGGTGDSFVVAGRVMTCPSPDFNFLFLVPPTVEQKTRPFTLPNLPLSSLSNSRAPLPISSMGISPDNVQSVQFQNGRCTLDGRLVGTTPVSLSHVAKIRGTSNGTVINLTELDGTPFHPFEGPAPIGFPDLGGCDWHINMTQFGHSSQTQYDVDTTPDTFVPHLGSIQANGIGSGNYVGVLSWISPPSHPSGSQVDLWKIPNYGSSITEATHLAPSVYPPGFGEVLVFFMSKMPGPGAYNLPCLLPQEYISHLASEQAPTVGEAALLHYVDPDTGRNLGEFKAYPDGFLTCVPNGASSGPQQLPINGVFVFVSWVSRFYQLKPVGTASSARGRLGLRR
# T2 sequence (VP2): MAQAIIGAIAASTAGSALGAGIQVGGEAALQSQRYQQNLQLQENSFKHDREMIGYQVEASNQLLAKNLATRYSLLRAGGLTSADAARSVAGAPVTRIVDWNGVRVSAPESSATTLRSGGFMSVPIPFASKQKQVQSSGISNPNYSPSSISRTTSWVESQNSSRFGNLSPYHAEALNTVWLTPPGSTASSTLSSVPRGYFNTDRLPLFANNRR
# T3: GII.4 Sydney 2012 shell (S) domain (human norovirus GII.4 Sydney 2012, UniProt P54635 1-221 (Lordsdale virus entry), limits assumed)
# T3 construct: Recombinant S domain particles (pVL1392, baculovirus, Sf9); the whole VP1 entry is named; also called GII.4 S domain
# T3 chain: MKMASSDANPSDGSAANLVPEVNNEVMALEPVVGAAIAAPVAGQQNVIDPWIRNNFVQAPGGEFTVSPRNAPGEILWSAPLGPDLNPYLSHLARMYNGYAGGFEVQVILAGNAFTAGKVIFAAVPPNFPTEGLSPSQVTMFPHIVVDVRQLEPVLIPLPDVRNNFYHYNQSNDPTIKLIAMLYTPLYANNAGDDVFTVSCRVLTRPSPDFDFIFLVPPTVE
# T4: GII.4 Sydney 2012 virus-like particles (VLPs), based on strain AFV08795.1 (human norovirus GII.4 Sydney 2012, UniProt P54635 1-538)
# T4 construct: also called GII.4 VLPs
# T4 chain: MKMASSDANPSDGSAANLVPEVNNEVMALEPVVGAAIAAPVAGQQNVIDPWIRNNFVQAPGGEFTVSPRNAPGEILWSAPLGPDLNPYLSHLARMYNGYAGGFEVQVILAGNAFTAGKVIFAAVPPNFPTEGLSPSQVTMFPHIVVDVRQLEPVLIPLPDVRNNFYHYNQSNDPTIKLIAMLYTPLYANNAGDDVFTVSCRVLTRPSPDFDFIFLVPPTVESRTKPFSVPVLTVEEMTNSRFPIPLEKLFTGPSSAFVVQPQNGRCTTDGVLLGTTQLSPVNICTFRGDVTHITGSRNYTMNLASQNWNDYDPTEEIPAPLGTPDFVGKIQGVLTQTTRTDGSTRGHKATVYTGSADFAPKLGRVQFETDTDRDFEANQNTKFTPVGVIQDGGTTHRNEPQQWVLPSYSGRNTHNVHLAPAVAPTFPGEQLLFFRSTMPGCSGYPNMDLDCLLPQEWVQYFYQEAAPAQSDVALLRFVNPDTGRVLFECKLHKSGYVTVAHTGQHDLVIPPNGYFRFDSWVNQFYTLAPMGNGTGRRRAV
# B1: NORO-115 (antibody, V domains shown)
# VH: QVQLVESGGGLVKPGGSLRLSCTASGITISGYYMSWIRQAPGKGLEWIVYINTSGRTIYYADSVKGRFSVSRDNAKESLYLQMDSLTVDDTGIYYCARDRLPASGSHWFHPWGQGTLVTVSS
# VL: DIVMTQSPDSLAVSLGGRATINCKSSQSVLYTSDNKNYLAWYQQQPGQPPKLLISWASTRESGVPDRFSGSGSGTDFTLTISNLQAEDVAVYYCQQYYNSPLAFGGGTKVEIK
# B2: NORO-156.3 (antibody, V domains shown)
# VH: QVQLQQWGAGLLKPSETLSLTCAVYGGSFSGYYWSWIRQPPGKGLEWIGEINHSGSTNYNPSLKSRVTISVDTSKNQFSLKLSSVTAADTAVYYCARGLMDVWGQGTLVTVSS
# VL: AIRMTQSPSSFSASTGDRVTITCRASQGISSYLAWYQQKPGKAPKLLIYAASTLQSGVPSRFSGSGSGTDFTLTISCLQSEDFATYYCQQYYSYPRTFGQGTKLEIK
# B3: NORO-202A.1 (antibody, V domains shown)
# VH: QVQLVQSGAEVKKPGASVKVSCKASEYTFTGYYLQWVRQAPGHGLEWMGWINPSGGTKYSQKFQGRVTMTRDTSITTVYMELSRLRSDDTAVYYCARDLLRNWGDHDAFDVWGQGTMVTVSS
# VL: QSVLTQPPSASETPGQGVTISCSGSSSNIGSNFVCWYQQVPGTAPKLLIYKNNQRPSGVPDRFSGSKSGTSASLAISGLRSEDEADYYCSAWDDSLSGPVFGGGTKLTVL
# Experiments:
# [1] = biological target: T1, GII.4 Houston 2002 (ABY27560.1) VLPs; test: ELISA on GII.4 Houston 2002 VLPs against ELISA on GII.4 Sydney 2012 VLPs
# GI.1 (M87661) VLPs = biological target: T2, GI.1 (M87661) VLPs; test: indirect ELISA on VLPs
# [2] = biological target: T3, GII.4 Sydney 2012 shell (S) domain; test: indirect ELISA on recombinant P and S domains
# [3] = biological target: T1, GII.4 Houston 2002 (ABY27560.1) VLPs; test: ELISA on GII.4 Houston 2002 VLPs
# [4] = biological target: T4, GII.4 Sydney 2012 virus-like particles …; test: indirect ELISA on coated GII.4 Sydney 2012 VLPs
Binder,fold higher binding EC50 compared to GII.4 Sydney 2012 VLPs [1] [fold],binding result (GI.1 (M87661) VLPs),binding result [2],binding result [3],EC50 [4] [µg/mL]
B1,> 10,–,–,–,–
B2,–,binds,no binding (tested: 500 nM),–,–
B3,–,no binding (tested: 500 nM),–,binds,0.4
